This is an account of results in PMC7356578, “Heparin Blocks the Inhibition of Tissue Kallikrein 1 by Kallistatin through Electrostatic Repulsion” (Biomolecules, 2020).

The chains are these.
B1: Recombinant human kallistatin (rKAL), wild type (natural protein, UniProt P29622 45-427, looked up)
chain: GSPSLKIAPANADFAFRFYYLIASETPGKNIFFSPLSISAAYAMLSLGACSHSRSQILEGLGFNLTELSESDVHRGFQHLLHTLNLPGHGLETRVGSALFLSHNLKFLAKFLNDTMAVYEAKLFHTNFYDTVGTIQLINDHVKKETRGKIVDLVSELKKDVLMVLVNYIYFKALWEKPFISSRTTPKDFYVDENTTVRVPMMLQDQEHHWYLHDRYLPCSVLRMDYKGDATVFFILPNQGKMREIEEVLTPEMLMRWNNLLRKRNFYKKLELHLPKFSISGSYVLDQILPRLGFTDLFSKWADLSGITKQQKLEASKSFHKATLDVDEAGTEAAAATSFAIKFFSAQTNRHILRFNRPFLVVIFSTSTQSVLFLGKVVDPTKP
notes: kallistatin (SERPINA4), human, residues 45-427; Vector pE-SUMO3; purified on a HisTrap column, so the SUMO3 fusion probably carries a His tag that leaves with SUMO3; During storage or crystallisation part of the protein is cleaved between F387 and F388 (P2-P1) by an unknown protease; the crystal structures hold this cleaved form; also called rKAL-WT; SERPINA4; source: E. coli BL21 (DE3), purified …
B2: rKAL-307/308D (natural protein, human, UniProt P29622 45-427, looked up)
chain: B1 chain with K263D, R264D
notes: kallistatin (SERPINA4), human, residues 45-427; double mutant of K307 and R308 to Asp; also called rKAL-K307/308D; source: E. coli BL21 (DE3), purified (HisTrap FF crude, SENP2 digestion, HiTrap SP)
B3: rKAL-R259D (natural protein, human, UniProt P29622 45-427, looked up)
chain: B1 chain with R215D
notes: kallistatin (SERPINA4), human, residues 45-427; source: E. coli BL21 (DE3), purified (HisTrap FF crude, SENP2 digestion, HiTrap SP)
B4: Recombinant human tissue kallikrein 1 (KLK1), wild type (enzyme)
chain: not shown
notes: tissue kallikrein 1 (KLK1), human, residues 25-262; Vector pE-SUMO3; also called kallikrein-related peptidase 1
B5: rKAL-R394D (natural protein, human, UniProt P29622 45-427, looked up)
chain: B1 chain with R350D
notes: as for B3
B6: rKAL-312/313D (natural protein, human, UniProt P29622 45-427, looked up)
chain: B1 chain with K268D, K269D
notes: kallistatin (SERPINA4), human, residues 45-427; double mutant of K312 and K313 to Asp; also called rKAL-K312/313D; source: E. coli BL21 (DE3), purified (HisTrap FF crude, SENP2 digestion, HiTrap SP)
B7: rKAL-R300D (natural protein, human, UniProt P29622 45-427, looked up)
chain: B1 chain with R256D
notes: as for B3

Details in all cases: both partners purified
The target in experiment [1] is B4. Description: kinetics of protease inhibition (discontinuous assay); pseudo-first-order; 10 nM protease with 100-500 nM kallistatin variant, PBS, 0.1% PEG 8000, 22 ± 1 °C; apparent second-order rate constant kapp from kobs; k2 = kapp × SI.
The target in experiment [2] is B4. Description: stoichiometry of inhibition by titration of residual protease activity; 1 µM protease with increasing kallistatin variant in PBS, 0.1% PEG 8000, 2 h, 37 °C; residual activity on 0.2 mM H-D-Val-Leu-Arg-AMC; intercept on the abscissa.
The target in experiment [3] is B1. Description: SDS-stable covalent serpin-protease complex on reducing SDS-PAGE; 2 µg rKAL mixed with 0.5-1 µg KLK1 (2-3 min), 5 µg KLK1-99Lm (20 min) or 0.5 µg KLK1-70Lm (2 min) at room temperature, no heparin; Coomassie stain.

Where a chain is given by its changes, count along the chain named.

B1: in experiment [1], the “k2 (kapp × SI, second-order rate constant)” value came out at 3400 M⁻¹ s⁻¹ and the “kapp (apparent second-order rate constant)” value was 2400 M⁻¹ s⁻¹. The “SI (stoichiometry of inhibition)” value in experiment [2] is 1.4.

As to B2, in experiment [1], the “k2 (kapp × SI, second-order rate constant)” value amounted to 2000 M⁻¹ s⁻¹ and the “kapp (apparent second-order rate constant)” value was found to be 1300 M⁻¹ s⁻¹. Further, the “SI (stoichiometry of inhibition)” value in experiment [2] came to 1.5.

Take B3: in experiment [1], the “k2 (kapp × SI, second-order rate constant)” value came out at 3500 M⁻¹ s⁻¹ and the “kapp (apparent second-order rate constant)” value came out at 2200 M⁻¹ s⁻¹. In addition, the “SI (stoichiometry of inhibition)” value in experiment [2] came out at 1.6.

For B4, the binding result in experiment [3] is “binds”.

Regarding B5, in experiment [1], the “k2 (kapp × SI, second-order rate constant)” value was 1800 M⁻¹ s⁻¹ and the “kapp (apparent second-order rate constant)” value amounted to 1000 M⁻¹ s⁻¹. The “SI (stoichiometry of inhibition)” value in experiment [2] is 1.8.

Take B6: in experiment [1], the “k2 (kapp × SI, second-order rate constant)” value was 1500 M⁻¹ s⁻¹ and the “kapp (apparent second-order rate constant)” value amounted to 1000 M⁻¹ s⁻¹. Also, in experiment [2], the “SI (stoichiometry of inhibition)” value turned out to be 1.5.

Turning to B7, in experiment [1], the “k2 (kapp × SI, second-order rate constant)” value was found to be 2900 M⁻¹ s⁻¹ and the “kapp (apparent second-order rate constant)” value was found to be 1600 M⁻¹ s⁻¹. Also, the “SI (stoichiometry of inhibition)” value in experiment [2] stood at 1.8.
